Source: patent EP3470426A1 (Numab Therapeutics AG, dated 2019)

Key:
Test in all cases: cell-based or functional assay
[1] = target: T1, CD137 on Jurkat NFkB reporter cells (human, UniProt Q07011 24-255)
[2] = target: T1, CD137 on Jurkat NFkB reporter cells; remark: listed apart in the source
[3] = target: T1, CD137 on Jurkat NFkB reporter cells; remark: listed apart in the source
[4] = target: T1, CD137 on Jurkat NFkB reporter cells; remark: listed apart in the source
[5] = target: T1, CD137 on Jurkat NFkB reporter cells; remark: listed apart in the source
[6] = target: T1, CD137 on Jurkat NFkB reporter cells; remark: listed apart in the source
[7] = target: T1, CD137 on Jurkat NFkB reporter cells; remark: listed apart in the source
human PD-L1 on cells = human PD-L1 on cells (human, UniProt Q9NZQ7 19-290)

B1: PRO1123 (bispecific antibody)
chain: DIQMTQSPSSLSASVGDRVTITCQASQSINDYLAWYQQKPGKAPKLLIYKASTLASGVPSRFSGSGSGTDFTLTISSLQPEDFATYYCQQGYIITDIDNVFGTGTKVTVLGGGGGSQVQLQESGPGLVKPSETLSLTCKVSGFSFSNSYWICWVRQPPGKGLEWIGCTFVGSSDSTYYANWAKGRVTISVDSSKNQVSLKLSSVTAADTAVYFCARHPSDAVYGYANNLWGQGTLVTVSSGGGGSGGGGSGGGGSGGGGSIQMTQSPSSLSASVGDRVTITCQASQSINNVLAWYQQKPGKPPKLLIYRASTLASGVPSRFSGSGSGTDFTLTISSLQPEDFATYYCQSSYGNYGDFGTGTKVTVLGGGGGSQVQLQESGPGLVKPSETLSLTCKVSGFSFSSGYDMCWIRQPPGKGLEWIGCVVAGSVDITYYASWAKGRVTISVDSSKNQFSLKLSSVTAADTAVYYCARKDAYSDAFNLWGQGTLVTVSS
Question: For B1, which “max. activation (%), NF-kB reporter, CHO-PD-L1” value [1] is on record?
Answer: The value was 219%.

Question: What about the “max. activation (%), NF-kB reporter, HCC827 +IFNg” value [1] of the same binder?
Answer: Its value is 154%.

Question: And the “max. activation (%), NF-kB reporter, HCC827 -IFNg” value [1]?
Answer: The value was 123%.

Question: And the “EC50, NFkB-luciferase reporter, HCC827 cells without IFNg” value [2]?
Answer: Its value is 16.1 ng/mL.

Question: And the “EC50, NFkB-luciferase reporter, CHO-PD-L1 cells” value [3]?
Answer: The value was 5.75 ng/mL.

Question: And the “EC50, NFkB-luciferase reporter, HCC827 cells stimulated with IFNg” value [4]?
Answer: The value was 11.9 ng/mL.

B2: PRO1060 (bispecific antibody, human IgG1, kappa, L234A L235A)
light: DIQMTQSPSSLSASVGDRVTITCQASQSINDYLAWYQQKPGKAPKLLIYKASTLASGVPSRFSGSGSGTDFTLTISSLQPEDFATYYCQQGYIITDIDNVFGTGTKVTVLGTVAAPSVFIFPPSDEQLKSGTASVVCLLNNFYPREAKVQWKVDNALQSGNSQESVTEQDSKDSTYSLSSTLTLSKADYEKHKVYACEVTHQGLSSPVTKSFNRGEC
heavy: QVQLQESGPGLVKPSETLSLTCKVSGFSFSSGYDMCWIRQPPGKGLEWIGCVVAGSVDITYYASWAKGRVTISVDSSKNQFSLKLSSVTAADTAVYYCARKDAYSDAFNLWGQGTLVTVSSASTKGPSVFPLAPSSKSTSGGTAALGCLVKDYFPEPVTVSWNSGALTSGVHTFPAVLQSSGLYSLSSVVTVPSSSLGTQTYICNVNHKPSNTKVDKRVEPKSCDKTHTCPPCPAPEAAGGPSVFLFPPKPKDTLMISRTPEVTCVVVDVSHEDPEVKFNWYVDGVEVHNAKTKPREEQYNSTYRVVSVLTVLHQDWLNGKEYKCKVSNKALGAPIEKTISKAKGQPREPQVYTLPPSREEMTKNQVSLTCLVKGFYPSDIAVEWESNGQPENNYKTTPPVLDSDGSFFLYSKLTVDKSRWQQGNVFSCSVMHEALHNHYTQKSLSLSPGKGGGGSGGGGSIQMTQSPSSLSASVGDRVTITCQASQSINNVLAWYQQKPGKAPKLLIYRASTLASGVPSRFSGSGSGTDFTLTISSLQPEDFATYYCQSSYGNYGDFGTGTKVTVLGGGGGSGGGGSGGGGSGGGGSQVQLQESGPGLVKPSETLSLTCKVSGFSFSNSYWICWIRQPPGKGLEWIGCTFVGSSDSTYYANWAKGRVTISVDSSKNQFSLKLSSVTAADTAVYYCARHPSDAVYGYANNLWGQGTLVTVSS
Question: What does the source list for B2?
Answer: EC50, NFkB-luciferase reporter, PD-L1 expressing CHO cells, 24h [5]: 80.8 ng/mL; EC50, NFkB-luciferase reporter, HCC827 with IFNy stimulation, 24h [6]: 17.5 ng/mL; EC50, NFkB-luciferase reporter, HCC827 without IFNy stimulation, 24h [6]: 13.6 ng/mL; EC50, NFkB-luciferase reporter, PD-L1 expressing CHO cells, 6h [7]: 56.4 ng/mL; IC50, NFAT-luciferase reporter gene assay (human PD-L1 on cells): 133 ng/mL

B3: PRO963 (other)
chain: DIQMTQSPSSLSASVGDRVTITCQASQSINDYLAWYQQKPGKAPKLLIYKASTLASGVPSRFSGSGSGTDFTLTISSLQPEDFATYYCQQGYIITDIDNVFGTGTKVTVLGGGGGSQVQLQESGPGLVKPSETLSLTCKVSGFSFSNSYWICWIRQPPGKGLEWIGCTFVGSSDSTYYANWAKGRVTISVDSSKNQFSLKLSSVTAADTAVYYCARHPSDAVYGYANNLWGQGTLVTVSSGGGGSGGGGSGGGGSGGGGSIQMTQSPSSLSASVGDRVTITCQASQSINNVLAWYQQKPGKAPKLLIYRASTLASGVPSRFSGSGSGTDFTLTISSLQPEDFATYYCQSSYGNYGDFGTGTKVTVLGGGGGSQVQLQESGPGLVKPSETLSLTCKVSGFSFSSGYDMCWIRQPPGKGLEWIGCVVAGSVDITYYASWAKGRVTISVDSSKNQFSLKLSSVTAADTAVYYCARKDAYSDAFNLWGQGTLVTVSSGGGGSGGGGSIQMTQSPSSLSASVGDRVTITCQSSESVYSNNQLSWYQQKPGQPPKLLIYDASDLASGVPSRFSGSGSGTDFTLTISSLQPEDFATYYCAGGFSSSSDTAFGGGTKLTVLGGGGGSGGGGSGGGGSGGGGSEVQLVESGGGLVQPGGSLRLSCAASGFSLSSNAMGWVRQAPGKGLEYIGIISVGGFTYYASWAKGRFTISRDNSKNTVYLQMNSLRAEDTATYFCARDRHGGDSSGAFYLWGQGTLVTVSS
Question: Which results are given for B3?
Answer: max. activation (%), NF-kB reporter, CHO-PD-L1, HSA yes, 24h [1]: 369%; IC50, NFAT-luciferase reporter gene assay, with HSA (human PD-L1 on cells): 275 ng/mL

B4: PRO1057 (other)
chain: DIQMTQSPSSLSASVGDRVTITCQASQSINDYLAWYQQKPGKAPKLLIYKASTLASGVPSRFSGSGSGTDFTLTISSLQPEDFATYYCQQGYIITDIDNVFGTGTKVTVLGGGGGSQVQLQESGPGLVKPSETLSLTCKVSGFSFSNSYWICWIRQPPGKGLEWIGCTFVGSSDSTYYANWAKGRVTISVDSSKNQFSLKLSSVTAADTAVYYCARHPSDAVYGYANNLWGQGTLVTVSSGGGGSGGGGSGGGGSGGGGSIQMTQSPSSLSASVGDRVTITCQASQSINNVLAWYQQKPGKAPKLLIYRASTLASGVPSRFSGSGSGTDFTLTISSLQPEDFATYYCQSSYGNYGDFGTGTKVTVLGGGGGSQVQLQESGPGLVKPSETLSLTCKVSGFSFSSGYDMCWIRQPPGKGLEWIGCVVAGSVDITYYASWAKGRVTISVDSSKNQFSLKLSSVTAADTAVYYCARKDAYSDAFNLWGQGTLVTVSSGGGGSGGGGSVVMTQSPSSLSASVGDRVTITCQASQIISSRSAWYQQKPGQPPKLLIYQASKLASGVPSRFSGSGSGTDFTLTISSLQPEDFATYYCQCTYIDSNFGAFGGGTKLTVLGGGGGSGGGGSGGGGSGGGGSEVQLVESGGGLVQPGGSLRLSCAASGFSFSSSYWICWVRQAPGKGLEWVGCVFTGDGTTYYASWAKGRFTISRDNSKNTVYLQMNSLRAEDTATYFCARPVSVYYYGMDLWGQGTLVTVSS
Question: What does the source list for B4?
Answer: EC50, NFkB-luciferase reporter, PD-L1 expressing CHO cells, 24h, + HSA [5]: 792 ng/mL; EC50, NFkB-luciferase reporter, HCC827 with IFNy stimulation, 24h, +HSA [6]: 115 ng/mL; EC50, NFkB-luciferase reporter, HCC827 without IFNy stimulation, 24h, +HSA [6]: 76.6 ng/mL; max. activation (%), NF-kB reporter, CHO-PD-L1, HSA yes, 24h [1]: 663%; EC50, NFkB-luciferase reporter, PD-L1 expressing CHO cells, 6h, + HSA [7]: 112 ng/mL; IC50, NFAT-luciferase reporter gene assay, with HSA (human PD-L1 on cells): 665 ng/mL

B5: PRO1058 (other)
chain: DIQMTQSPSSLSASVGDRVTITCQASQSINDYLAWYQQKPGKAPKLLIYKASTLASGVPSRFSGSGSGTDFTLTISSLQPEDFATYYCQQGYIITDIDNVFGTGTKVTVLGGGGGSQVQLQESGPGLVKPSETLSLTCKVSGFSFNNDYDMCWIRQPPGKGLEWIGCIDTGDGSTYYASWAKGRVTISVDSSKNQFSLKLSSVTAADTAVYYCAREAASSSGYGMGYFDLWGQGTLVTVSSGGGGSGGGGSGGGGSGGGGSIQMTQSPSSLSASVGDRVTITCQSSQSVYDNNWLAWYQQKPGKAPKLLIYRASNLASGVPSRFSGSGSGTDFTLTISSLQPEDFATYYCQGTYLSSNWYWAFGTGTKVTVLGGGGGSQVQLQESGPGLVKPSETLSLTCKVSGFSFSSGYDMCWIRQPPGKGLEWIGCVVAGSVDITYYASWAKGRVTISVDSSKNQFSLKLSSVTAADTAVYYCARKDAYSDAFNLWGQGTLVTVSSGGGGSGGGGSVVMTQSPSSLSASVGDRVTITCQASQIISSRSAWYQQKPGQPPKLLIYQASKLASGVPSRFSGSGSGTDFTLTISSLQPEDFATYYCQCTYIDSNFGAFGGGTKLTVLGGGGGSGGGGSGGGGSGGGGSEVQLVESGGGLVQPGGSLRLSCAASGFSFSSSYWICWVRQAPGKGLEWVGCVFTGDGTTYYASWAKGRFTISRDNSKNTVYLQMNSLRAEDTATYFCARPVSVYYYGMDLWGQGTLVTVSS
Question: With B5 as the binder, how does the “EC50, NFkB-luciferase reporter, PD-L1 expressing CHO cells, 24h, + HSA” value [5] read?
Answer: The value was 121 ng/mL.

Question: What about the “max. activation (%), NF-kB reporter, CHO-PD-L1, HSA yes, 24h” value [1] of the same binder?
Answer: Its value is 36.2%.

Question: And the “EC50, NFkB-luciferase reporter, PD-L1 expressing CHO cells, 6h, + HSA” value [7]?
Answer: Its value is 70.9 ng/mL.

B6: PRO1013 (scFv)
scFv: DIQMTQSPSSLSASVGDRVTITCQASQSIGTYLAWYQQKPGKAPKLLIYRAFILASGVPSRFSGSGSGTDFTLTISSLQPEDFATYYCQSNFYSDSTTIGPNAFGTGTKVTVLGGGGGSGGGGSGGGGSGGGGSQVQLVQSGAEVKKPGASVKVSCKASGFSFNSDYWIYWVRQAPGQGLEWMGSIYGGSSGNTQYASWAQGRVTMTRDTSISTAYMELSSLRSEDTAVYYCARGYVDYGGATDLWGQGTLVTVSS
Question: Which “IC50, NFAT-luciferase reporter gene assay” value (human PD-L1 on cells) does the source give for B6 here?
Answer: Its value is 21.3 ng/mL.

B7: PRO830 (scFv)
scFv: DIQMTQSPSSLSASVGDRVTITCQASQSINDYLAWYQQKPGKAPKLLIYKASTLASGVPSRFSGSGSGTDFTLTISSLQPEDFATYYCQQGYIITDIDNVFGTGTKVTVLGGGGGSGGGGSGGGGSGGGGSQVQLQESGPGLVKPSETLSLTCKVSGFSFSSGYDMCWIRQPPGKGLEWIGCVVAGSVDITYYASWAKGRVTISVDSSKNQFSLKLSSVTAADTAVYYCARKDAYSDAFNLWGQGTLVTVSS
Question: With B7 as the binder, how does the “IC50, NFAT-luciferase reporter gene assay” value (human PD-L1 on cells) read?
Answer: Its value is 42.9 ng/mL.

B8: PRO1059 (bispecific antibody, human IgG1, kappa, L234A L235A)
light: DIQMTQSPSSLSASVGDRVTITCQASQSINDYLAWYQQKPGKAPKLLIYKASTLASGVPSRFSGSGSGTDFTLTISSLQPEDFATYYCQQGYIITDIDNVFGTGTKVTVLGTVAAPSVFIFPPSDEQLKSGTASVVCLLNNFYPREAKVQWKVDNALQSGNSQESVTEQDSKDSTYSLSSTLTLSKADYEKHKVYACEVTHQGLSSPVTKSFNRGECGGGGSGGGGSIQMTQSPSSLSASVGDRVTITCQASQSINNVLAWYQQKPGKAPKLLIYRASTLASGVPSRFSGSGSGTDFTLTISSLQPEDFATYYCQSSYGNYGDFGTGTKVTVLGGGGGSGGGGSGGGGSGGGGSQVQLQESGPGLVKPSETLSLTCKVSGFSFSNSYWICWIRQPPGKGLEWIGCTFVGSSDSTYYANWAKGRVTISVDSSKNQFSLKLSSVTAADTAVYYCARHPSDAVYGYANNLWGQGTLVTVSS
heavy: QVQLQESGPGLVKPSETLSLTCKVSGFSFSSGYDMCWIRQPPGKGLEWIGCVVAGSVDITYYASWAKGRVTISVDSSKNQFSLKLSSVTAADTAVYYCARKDAYSDAFNLWGQGTLVTVSSASTKGPSVFPLAPSSKSTSGGTAALGCLVKDYFPEPVTVSWNSGALTSGVHTFPAVLQSSGLYSLSSVVTVPSSSLGTQTYICNVNHKPSNTKVDKRVEPKSCDKTHTCPPCPAPEAAGGPSVFLFPPKPKDTLMISRTPEVTCVVVDVSHEDPEVKFNWYVDGVEVHNAKTKPREEQYNSTYRVVSVLTVLHQDWLNGKEYKCKVSNKALGAPIEKTISKAKGQPREPQVYTLPPSREEMTKNQVSLTCLVKGFYPSDIAVEWESNGQPENNYKTTPPVLDSDGSFFLYSKLTVDKSRWQQGNVFSCSVMHEALHNHYTQKSLSLSPGK
Question: Which “IC50, NFAT-luciferase reporter gene assay” value (human PD-L1 on cells) does the source give for B8 here?
Answer: Its value is 93.8 ng/mL.
